In experiment [1] the target is TOX (UniProt Q66JW3). Briefly: TOX co-IP from EL4 nuclear extract, LC-MS/MS, MiST.
For experiment [2], the target named is TOX (UniProt Q66JW3). Briefly: anti-TOX IP from EL4 nuclear extract, LC-MS/MS, MiST analysis.

Chain of TOX (Q66JW3 whole entry): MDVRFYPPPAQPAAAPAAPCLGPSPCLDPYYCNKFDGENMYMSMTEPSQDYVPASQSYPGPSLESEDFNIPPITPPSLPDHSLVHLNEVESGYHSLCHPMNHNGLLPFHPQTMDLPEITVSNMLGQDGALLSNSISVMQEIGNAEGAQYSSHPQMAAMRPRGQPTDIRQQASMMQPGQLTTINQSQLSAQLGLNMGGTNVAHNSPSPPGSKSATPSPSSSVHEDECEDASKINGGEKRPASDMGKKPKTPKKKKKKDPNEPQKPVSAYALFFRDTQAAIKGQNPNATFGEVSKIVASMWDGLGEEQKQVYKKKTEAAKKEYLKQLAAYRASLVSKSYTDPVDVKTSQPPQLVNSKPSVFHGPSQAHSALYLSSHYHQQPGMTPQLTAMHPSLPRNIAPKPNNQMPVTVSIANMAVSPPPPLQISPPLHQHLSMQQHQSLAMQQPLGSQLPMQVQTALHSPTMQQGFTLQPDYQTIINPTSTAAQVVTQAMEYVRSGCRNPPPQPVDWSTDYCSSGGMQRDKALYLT
Chain of Emg1 (O35130 whole entry): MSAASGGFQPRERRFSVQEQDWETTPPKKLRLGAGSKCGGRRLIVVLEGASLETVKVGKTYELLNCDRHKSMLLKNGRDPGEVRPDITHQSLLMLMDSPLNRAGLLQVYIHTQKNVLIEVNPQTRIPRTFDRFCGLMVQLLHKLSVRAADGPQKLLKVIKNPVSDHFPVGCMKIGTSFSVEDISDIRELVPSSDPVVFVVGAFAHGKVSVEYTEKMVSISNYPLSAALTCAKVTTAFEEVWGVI

In experiment [1], Ap3m1 (from UniProt Q9JKC8 1-418) yielded an Abundance of 1.64e-05, a MiST Score of 0.829, a Reproducibility of 0.982 and a Specificity of 0.767.
In experiment [1], Arhgef2 (from UniProt Q60875 1-985) gave an Abundance of 1.33e-05, a MiST Score of 0.847, a Reproducibility of 0.943 and a Specificity of 0.811.
On the same counts, the results for Atxn2 (from UniProt O70305 1-1285) are 2.51e-06, 0.831, 0.831 and 0.838.
Brd1: in experiment [2], the Abundance is 3.1e-06, the MiST Score is 0.785, the Reproducibility amounted to 0.321 and the Specificity was found to be 1.
As for Ccnk (from UniProt O88874 1-554), in experiment [1], the Abundance was 1.18e-05, the MiST Score is 0.846, the Reproducibility came out at 0.975 and the Specificity turned out to be 0.795.
For the substance Cd3eap (from UniProt Q76KJ5 1-399), in experiment [2], the Abundance came to 0.000224, the MiST Score was determined as 0.773, the Reproducibility came out at 0.993 and the Specificity was 0.68.
In experiment [1], Cdc16 (from UniProt Q8R349 1-620) came in with an Abundance of 4.84e-06, a MiST Score of 0.847, a Reproducibility of 0.524 and a Specificity of 1.
In experiment [1], Cnot1 (from UniProt Q6ZQ08 1-2375) gave an Abundance of 5.57e-07, a MiST Score of 0.85, a Reproducibility of 0.931 and a Specificity of 0.821.
In experiment [1], Copg1 (from UniProt Q9QZE5 1-874) returned an Abundance of 3.36e-06, a MiST Score of 0.844, a Reproducibility of 0.514 and a Specificity of 1.
In experiment [1], Cpt1a (from UniProt P97742 2-773) came in with an Abundance of 7.71e-07, a MiST Score of 0.847, a Reproducibility of 0.522 and a Specificity of 1.
In experiment [2], “Csnk2a2 (from UniProt O54833 1-350) (enzyme)” showed an Abundance of 2.87e-05, a MiST Score of 0.778, a Reproducibility of 0.913 and a Specificity of 0.725.
For Csrp1 (from UniProt P97315 1-193), in experiment [1], the Abundance stood at 5.52e-05, the MiST Score is 0.828, the Reproducibility was 0.966 and the Specificity stood at 0.773.
Consider Cycs (from UniProt P62897 2-105), for which, in experiment [2], the Abundance was found to be 8.14e-05, the MiST Score was determined as 0.793, the Reproducibility is 0.957 and the Specificity came out at 0.726.
As to Ddx23, in experiment [1], the Abundance came to 7.9e-06, the MiST Score stood at 0.836, the Reproducibility was determined as 0.837 and the Specificity came out at 0.843.
As for Dhx29 (from UniProt Q6PGC1 1-1365), in experiment [1], the Abundance turned out to be 5.88e-07, the MiST Score is 0.847, the Reproducibility turned out to be 0.928 and the Specificity came out at 0.818.
Regarding Eif2a (from UniProt Q8BJW6 1-581), in experiment [2], the Abundance is 8.58e-05, the MiST Score turned out to be 0.794, the Reproducibility is 0.992 and the Specificity was 0.712.
For Eif3h (from UniProt Q91WK2 1-352), in that order: 0.000105, 0.784, 0.956 and 0.714.
In experiment [2], Elmo1 (from UniProt Q8BPU7 1-727) came in with an Abundance of 5.93e-06, a MiST Score of 0.769, a Reproducibility of 0.595 and a Specificity of 0.854.
In experiment [2], “Emg1 (from UniProt O35130 1-244) (enzyme)” came in with an Abundance of 7.66e-05, a MiST Score of 0.766, a Reproducibility of 0.939 and a Specificity of 0.695.
In experiment [2], “Gm20425; Srprb (from UniProt P47758 1-269)” returned an Abundance of 5.88e-06, a MiST Score of 0.766, a Reproducibility of 0.92 and a Specificity of 0.703.
As for Hp1bp3 (from UniProt Q3TEA8 2-554), in experiment [2], the Abundance was 1.65e-05, the MiST Score turned out to be 0.766, the Reproducibility was determined as 0.779 and the Specificity came out at 0.766.
In the case of “Luzp1; mFLJ00226 (from UniProt Q8R4U7 2-1068)”, in experiment [2], the Abundance came to 7.26e-06, the MiST Score stood at 0.792, the Reproducibility was 0.856 and the Specificity is 0.77.
Turning to Lztfl1 (from UniProt Q9JHQ5 1-299), in experiment [2], the Abundance was 6.33e-05, the MiST Score came out at 0.776, the Reproducibility was 0.894 and the Specificity was determined as 0.73.
On the same counts, the results for Numa1 (from UniProt E9Q7G0 1-2094) are 1.43e-06, 0.787, 0.775 and 0.799.
Regarding “Pfkl (from UniProt P12382 2-780) (enzyme)”, in experiment [2], the Abundance worked out at 3.37e-06, the MiST Score was determined as 0.768, the Reproducibility amounted to 0.501 and the Specificity worked out at 0.894.
In experiment [2], Ppan (from UniProt Q91YU8 1-470) came in with an Abundance of 4.7e-05, a MiST Score of 0.792, a Reproducibility of 0.959 and a Specificity of 0.723.
Turning to Racgap1 (from UniProt Q9WVM1 1-628), in experiment [2], the Abundance worked out at 8.29e-06, the MiST Score was determined as 0.793, the Reproducibility is 0.868 and the Specificity came to 0.765.
Turning to Rbm15 (from UniProt Q0VBL3 1-962), in experiment [2], the Abundance was found to be 8.04e-06, the MiST Score is 0.776, the Reproducibility is 0.987 and the Specificity was 0.687.
In experiment [2], Rcc1 (from UniProt Q8VE37 2-421) came in with an Abundance of 2.79e-05, a MiST Score of 0.796, a Reproducibility of 0.986 and a Specificity of 0.717.
In experiment [2], Rcc2 (from UniProt Q8BK67 1-520) gave an Abundance of 3.74e-05, a MiST Score of 0.79, a Reproducibility of 0.958 and a Specificity of 0.722.
For Sin3a (from UniProt Q60520 1-1274), in that order: 5.49e-06, 0.773, 0.284 and 1.
For Slc25a3 (from UniProt Q8VEM8 46-357), in that order: 6.71e-05, 0.778, 0.975 and 0.696.
On to Slc25a4 (from UniProt P48962 2-298), for which, in experiment [2], the Abundance is 0.000186, the MiST Score stood at 0.765, the Reproducibility turned out to be 0.959 and the Specificity is 0.684.
As to Slc25a11 (from UniProt Q9CR62 2-314), in experiment [2], the Abundance came to 2.29e-05, the MiST Score is 0.788, the Reproducibility stood at 0.956 and the Specificity is 0.72.
With “Smarca4 (from UniProt Q3TKT4 1-1613) (enzyme)”, in experiment [2], the Abundance is 6.52e-07, the MiST Score amounted to 0.786, the Reproducibility was 0.594 and the Specificity amounted to 0.879.
In experiment [2], Srp72 returned an Abundance of 3.55e-05, a MiST Score of 0.765, a Reproducibility of 0.872 and a Specificity of 0.723.
As to Srrm2 (from UniProt Q8BTI8 1-2703), in experiment [2], the Abundance turned out to be 1.1e-06, the MiST Score is 0.769, the Reproducibility is 0.861 and the Specificity worked out at 0.734.
As to Tcof1 (from UniProt O08784 1-1320), in experiment [2], the Abundance turned out to be 0.000142, the MiST Score was 0.77, the Reproducibility is 0.984 and the Specificity came to 0.681.
In experiment [2], Terf2 (from UniProt O35144 1-541) had an Abundance of 6.86e-06, a MiST Score of 0.79, a Reproducibility of 0.994 and a Specificity of 0.705.
For the substance Thoc1 (from UniProt Q8R3N6 1-657), in experiment [2], the Abundance was determined as 9.29e-06, the MiST Score is 0.775, the Reproducibility stood at 0.999 and the Specificity is 0.681.
Take “Umps (from UniProt P13439 1-481) (enzyme)”: in experiment [2], the Abundance amounted to 2.41e-06, the MiST Score is 0.766, the Reproducibility is 0.792 and the Specificity came out at 0.761.
Take “Usp10 (from UniProt P52479 2-792) (enzyme)”: in experiment [2], the Abundance was 3.26e-06, the MiST Score was determined as 0.793, the Reproducibility was found to be 0.613 and the Specificity worked out at 0.881.
In experiment [2], Wdr36 returned an Abundance of 3.46e-06, a MiST Score of 0.785, a Reproducibility of 0.886 and a Specificity of 0.747.
On the same counts, the results for Xrcc5 (from UniProt P27641 1-732) are 2.92e-05, 0.775, 0.737 and 0.799.
For “Xrn2 (from UniProt Q9DBR1 1-951) (enzyme)”, in that order: 8.55e-06, 0.787, 0.804 and 0.787.
In experiment [2], Ywhah (from UniProt P68510 2-246) came in with an Abundance of 6.28e-05, a MiST Score of 0.774, a Reproducibility of 0.819 and a Specificity of 0.761.
In experiment [2], Zw10 (from UniProt O54692 2-779) gave an Abundance of 2.83e-06, a MiST Score of 0.767, a Reproducibility of 0.582 and a Specificity of 0.857.

The record behind these values is US20210071139A1.
